Experimental data published in US20170015742A1 (published 2017).

Target: T1, Human PDGF-BB (human, UniProt P01127 82-190)
T1 construct: Recombinant human PDGF-BB, a homodimer of two B chains; also called hPDGF-BB; huPDGF-BB
Test: SPR (Biacore), antibody captured via anti-human Fc, antigen in solution
Method: (§1) For example, approximately 9000 RU of goat anti-human Fc specific polyclonal antibody (Thermo Fisher Scientific Inc., Rockford, Ill.) diluted in 10 mM sodium acetate (pH 4.5) is directly immobilized across a CM5 research grade biosensor chip using a standard amine coupling kit according to manufacturer's instructions and procedures at 25 μg/ml. Unreacted moieties on the biosensor surface were blocked with ethanolamine. For kinetic analysis, rate equations derived from the 1:1 Langmuir binding model were fitted simultaneously to multiple antigen injections (using global fit analysis) with the use of Scrubber 2 (BioLogic Software), Biacore Biaevaluation 4.0.1 software or Biacore T100 Evaluation software. Purified antibodies or DVD-Ig molecules were diluted in running buffer for capture across goat anti-human Fc reaction surfaces. Antibodies or DVD-Ig molecules to be captured as a ligand (1 μg/ml) were injected over reaction matrices at a flow rate of 10 μl/minute. During the assay, all measurements were referenced against the capture surface alone (i.e., with no captured antibody or DVD-Ig molecule). […] The equilibrium dissociation constant KD (M) of the reaction between antibodies and the target antigen was then calculated from the kinetic rate constants by the following formula: KD=Koff/Kₒₙ. Binding was recorded as a function of time and kinetic rate constants were calculated.

T1 sequence (P01127 82-190 limits assumed): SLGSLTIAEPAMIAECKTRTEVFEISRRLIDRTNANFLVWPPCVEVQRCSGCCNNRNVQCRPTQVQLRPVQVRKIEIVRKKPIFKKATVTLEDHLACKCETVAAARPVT

| Kd [nM] | kon [M⁻¹ s⁻¹] | Binder |
| --- | --- | --- |
| ≤ 0.56 | ≥ 1e+07 | hBDI-9E8.1 (antibody, V domains shown, Humanized IgG) VH: EVTLRESGPALVKPTQTLTLTCTFSGFSLSTYGMGVGWIRQPPGKALEWLANIWWDDDKYYNPSLKNRLTISKDTSKNQVVLTMTNMDPVDTATYYCARIESIGTTYSFDYWGQGTMVTVSS VL: NFMLTQPHSVSESPGKTVTISCERSSGDIGDSYVSWYQQRPGSSPTTVIYADDQRPSGVPDRFSGSIDSSSNSASLTISGLKTEDEADYYCQSYDINIDIVFGGGTKLTVL |
| ≤ 0.51 | ≥ 1e+07 | hBDI-9E8.2 (antibody, V domains shown, Humanized IgG) VH: EVTLRESGPALVKPTQTLTLTCTFSGFSLSTYGMGVGWIRQPPGKALEWLANIWWDDDKYYNPSLKNRLTISKDTSKNQVVLTMTNMDPVDTATYYCARIESIGTTYSFDYWGQGTMVTVSS VL: NFMLTQPHSVSESPGKTVTISCERSSGDIGDSYVSWYQQRPGSPPTNVIYADDQRPSGVPDRFSGSIDSSSNSASLTISGLKTEDEADYFCQSYDINIDIVFGGGTKLTVL |

Target: T2, human VEGF-A (human, UniProt P15692-4 27-191, limits assumed)
T2 construct: also called huVEGF-A
T2 sequence (P15692 other isoform, or with tags, fused parts or gaps limits assumed): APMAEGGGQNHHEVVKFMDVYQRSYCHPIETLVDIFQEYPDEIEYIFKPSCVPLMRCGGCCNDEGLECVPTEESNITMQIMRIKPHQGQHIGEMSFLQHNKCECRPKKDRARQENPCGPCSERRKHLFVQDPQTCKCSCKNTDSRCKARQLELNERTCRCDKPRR
Test: SPR (Biacore), antibody captured by anti-human Fc, VEGF-A injected
Method: as §1

| Binder | Kd [pM] | kon [M⁻¹ s⁻¹] |
| --- | --- | --- |
| hBEW-1B10.1 (antibody, V domains shown, Humanized IgG made from pHybE vectors in HEK293 cells) VH: EVQLVESGGGLVQPGGSLRLSCAASGFSFSKYDMAWFRQAPGKGLEWVASITTSGVGTYYRDSVKGRFTVSRDNAKSTLYLQMNSLRAEDTAVYYCARGYGAMDAWGQGTTVTVSS VL: DIQMTQSPSSLSASVGDRVTITCKASQDIDDYLSWYQQKPGKSPKLVIYAATRLADGVPSRFSGSGSGTDYTLTISSLQPEDFATYYCLQSSSTPWTFGGGTKVEIK | 18 | 7.6e+06 |
| hBEW-1B10.2 (antibody, V domains shown, Humanized IgG made from pHybE vectors in HEK293 cells) VH: EVQLVESGGGLVQPGGSLRLSCAASGFSFSKYDMAWFRQAPGKGLEWVASITTSGVGTYYRDSVKGRFTVSRDNAKNSLYLQMNSLRAEDTAVYYCARGYGAMDAWGQGTTVTVSS VL: DIQMTQSPSSLSASVGDRVTITCKASQDIDDYLSWYQQKPGKSPKLVIYAATRLADGVPSRFSGSGSGTDYTLTISSLQPEDFATYYCLQSSSTPWTFGGGTKVEIK | 20 | 7.5e+06 |
| hBEW-5C3.5 (antibody, V domains shown, Humanized IgG made from pHybE vectors in HEK293 cells) VH: EIQLVQSGAEVKKPGSSVKVSCKASGYTFTNYGVYWVKQAPGQGLEYMGWINTETGKPTYADDFKGRFTFTLDKSTSTAYMELSSLRSEDTAVYFCARARQLDWFVYWGQGTLVTVSS VL: DTQLTQSPSSLSASVGDRVTISCRARESLTTSLSWFQQKPGKQPKLLIYGASKLESGVPSRFSGSGSGTDFTLTISSLQPEDFATYFCQQSWYDPPTFGGGTKVEIK | 8.5 | 1.2e+07 |
| hBEW-9E10.1 (antibody, V domains shown, Humanized IgG made from pHybE vectors in HEK293 cells; also called AB642 (9E10.1)) VH: EIQLVQSGSELKKPGASVKVSCKASGYTFTNYGMYWVKQAPGQGLEYMGWIDTETGRPTYADDFKGRFVFSLDTSVSTAYLQISSLKAEDTAVYFCARWSGDTTGIRGPWFAYWGQGTLVTVSS VL: DIRMTQSPSSLSASVGDRVTIECLASEDIYSDLAWYQQKPGKSPKLLIYNANGLQNGVPSRFSGSGSGTDYSLTISSLQPEDVATYFCQQYNYFPGTFGQGTKLEIK | 2.1 | 1.2e+07 |
| hBEW-9E10.2 (antibody, V domains shown, Humanized IgG made from pHybE vectors in HEK293 cells) VH: EIQLVQSGAEVKKPGSSVKVSCKASGYTFTNYGMYWVKQAPGQGLEYMGWIDTETGRPTYADDFKGRFTFTADKSTSTAYMELSSLRSEDTAVYFCARWSGDTTGIRGPWFAYWGQGTLVTVSS VL: DIRMTQSPSSLSASVGDRVTIECLASEDIYSDLAWYQQKPGKSPKLLIYNANGLQNGVPSRFSGSGSGTDYSLTISSLQPEDVATYFCQQYNYFPGTFGQGTKLEIK | 12 | 1.6e+07 |
| hBEW-9E10.5 (antibody, V domains shown, Humanized IgG made from pHybE vectors in HEK293 cells) VH: EIQLVQSGAEVKKPGSSVKVSCKASGYTFTNYGMYWVKQAPGQGLEYMGWIDTETGRPTYADDFKGRFTFTADKSTSTAYMELSSLRSEDTAVYFCARWSGDTTGIRGPWFAYWGQGTLVTVSS VL: DIRMTQSPSSLSASVGDRVTITCLASEDIYSDLAWYQQKPGKSPKLLIYNANGLQNGVPSRFSGSGSGTDYTLTISSLQPEDVATYFCQQYNYFPGTFGQGTKLEIK | 15 | 1.6e+07 |
| hBEW-9E10.6 (antibody, V domains shown, Humanized IgG made from pHybE vectors in HEK293 cells) VH: EVQLVQSGAEVKKPGSSVKVSCKASGYTFTNYGMYWVRQAPGQGLEWMGWIDTETGRPTYADDFKGRFTFTADKSTSTAYMELSSLRSEDTAVYYCARWSGDTTGIRGPWFAYWGQGTLVTVSS VL: DIRMTQSPSSLSASVGDRVTITCLASEDIYSDLAWYQQKPGKSPKLLIYNANGLQNGVPSRFSGSGSGTDYTLTISSLQPEDVATYFCQQYNYFPGTFGQGTKLEIK | 2.6 | 1.5e+07 |

Other lines, results leading:

| Kd [pM] | kon [M⁻¹ s⁻¹] | Binder |
| --- | --- | --- |
| 6 | 1.1e+07 | hBEW-5C3.1 (antibody, V domains shown, Humanized IgG made from pHybE vectors in HEK293 cells) VH: EIQLVQSGSELKKPGASVKVSCKASGYTFTNYGVYWVKQAPGQGLEYMGWINTETGKPTYADDFKGRFVFSLDTSVSTAYLQISSLKAEDTAVYYCARARQLDWFVYWGQGTLVTVSS VL: DTVLTQSPATLSLSPGERATLSCRARESLTTSLSWFQQKPGQQPRLLIYGASKLESGVPARFSGSGSGTDFTLTISSLEPEDFAVYFCQQSWYDPPTFGGGTKVEIK |
| 8.6 | 9.9e+06 | hBEW-5C3.4 (antibody, V domains shown, Humanized IgG made from pHybE vectors in HEK293 cells) VH: EIQLVQSGSELKKPGASVKVSCKASGYTFTNYGVYWVKQAPGQGLEYMGWINTETGKPTYADDFKGRFVFSLDTSVSTAYLQISSLKAEDTAVYYCARARQLDWFVYWGQGTLVTVSS VL: DTQLTQSPSSLSASVGDRVTISCRARESLTTSLSWFQQKPGKQPKLLIYGASKLESGVPSRFSGSGSGTDFTLTISSLQPEDFATYFCQQSWYDPPTFGGGTKVEIK |
| 1.7 | 7.9e+06 | hBEW-9A8.17 (antibody, V domains shown, Humanized IgG made from pHybE vectors in HEK293 cells) VH: EIQLVQSGSELKKPGASVKVSCKASGYTFTNYGMYWVKQAPGQGLEYMGWINTETGKPIYADDFKGRFVFSLDTSVSTAYLQISSLKAEDTAVYYCARVDYDGSFWFAYWGQGTLVTVSS VL: ETVLTQSPATLSLSPGERATLSCRASESVSTVIHWYQQKPGQQPRLLIHGASNLESGVPARFSGSGSGTDFTLTISSLEPEDFAVYFCQQHWNDPPTFGQGTKLEIK |
| 6.7 | 5.8e+06 | hBEW-9A8.21 (antibody, V domains shown, Humanized IgG made from pHybE vectors in HEK293 cells) VH: EIQLVQSGAEVKKPGASVKVSCKASGYTFTNYGMYWVRQAPGQGLEWMGWINTETGKPIYADDFKGRFTFTLDTSTSTAYMELRSLRSDDTAVYYCARVDYDGSFWFAYWGQGTLVTVSS VL: ETVLTQSPATLSLSPGERATLSCRASESVSTVIHWYQQKPGQQPRLLIHGASNLESGVPARFSGSGSGTDFTLTISSLEPEDFAVYFCQQHWNDPPTFGQGTKLEIK |
| 2.1 | 1.2e+07 | hBEW-9E10.4 (antibody, V domains shown, Humanized IgG made from pHybE vectors in HEK293 cells) VH: EIQLVQSGSELKKPGASVKVSCKASGYTFTNYGMYWVKQAPGQGLEYMGWIDTETGRPTYADDFKGRFVFSLDTSVSTAYLQISSLKAEDTAVYFCARWSGDTTGIRGPWFAYWGQGTLVTVSS VL: DIRMTQSPSSLSASVGDRVTITCLASEDIYSDLAWYQQKPGKSPKLLIYNANGLQNGVPSRFSGSGSGTDYTLTISSLQPEDVATYFCQQYNYFPGTFGQGTKLEIK |
| 3.2 | 1.3e+07 | hBEW-9E10.3 (antibody, V domains shown, Humanized IgG made from pHybE vectors in HEK293 cells) VH: EVQLVQSGAEVKKPGSSVKVSCKASGYTFTNYGMYWVRQAPGQGLEWMGWIDTETGRPTYADDFKGRFTFTADKSTSTAYMELSSLRSEDTAVYYCARWSGDTTGIRGPWFAYWGQGTLVTVSS VL: DIRMTQSPSSLSASVGDRVTIECLASEDIYSDLAWYQQKPGKSPKLLIYNANGLQNGVPSRFSGSGSGTDYSLTISSLQPEDVATYFCQQYNYFPGTFGQGTKLEIK |
